In the supplement of paper PMC7877785:
± gives the uncertainty stated by the source.

Assay: self-splicing fitness, log relative to wild type (ln ratio); higher = more splicing; Tetrahymena group I intron in knt gene, E. coli kanamycin selection, DiMSum; sequences stand for … in CUCUCU…GGAGGGAAAAGUUAUCAGGCAUGCACCUGGUAGCUAGUCUUUAAACCAAUAGAUUGCAUCGGUUUAAAAGGCAAGACCGUCAAAUUGCGGGAAAGGGGUCAACAGCCGUUCAGUACCAAGUCUCAGGGGAAACUUUGAGAUGGCCUUGCAAAGGGUAUGGUAAUAAGCUGACGGACAUGGUCCUAACCACGCAGCCAAGUCCUAAGUCAACAGAUCUUCUGUUGAUAUGGAUGCAGUUCACAGACUAAAUGUCGGUCGGGGAAGAUGUAUUCUUCUCAUAAGAUAUAGUCGGACCUCUCCUUAAUGGGAGCUAGCGGAUGAAGUGAUGCAACACUGGAGCCGCUGGGAACUAAUUUGUAUGCGAAAGUAUAUUGAUUAGUUUUGGAGUACUCGUGGUCG
Procedure, shortened: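 A randomised library covering all eight P1ex-region intron nucleotides was built with the intron in the knt kanamycin-resistance gene on pET-22b(+) and held in E. coli BL21(DE3). Cells were grown overnight at 37°C or 30°C on LB agar, with or without 25 μg/mL kanamycin, plus 100 μg/mL carbenicillin, 50 μM IPTG and 0.2% rhamnose, and pooled colonies were amplicon-sequenced on an Illumina HiSeq 2500. DiMSum fitness is the error-weighted combination of wild-type-normalised replicate fold changes, kanamycin versus none.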

| Sequence | self-splicing fitness (ln) (30 °C) | self-splicing fitness (ln) (37 °C) |
| --- | --- | --- |
| UUGUAGCAAUAUUACGUGAA | -1.87 ± 0.14 | -0.614 ± 0.14 |
| UCGCAGCAAUAUUACGUCAG | -1.59 ± 0.12 | 0.604 ± 0.15 |
| UUCGAGCAAUAUUACGCAGG | -2.48 ± 0.27 | -1.82 ± 0.23 |
| UUUUAGCAAUAUUACGGGAA | -1.16 ± 0.16 | -1.19 ± 0.13 |
| AUAUAGCAAUAUUACGUCAG | -3.76 ± 0.31 | -1.62 ± 0.25 |
| AAGAAGCAAUAUUACGUUGA | -1.76 ± 0.12 | -2.25 ± 0.14 |
| CUCUAGCAAUAUUACGUAUA | -2.7 ± 0.3 | -2.84 ± 0.25 |
| GUUGAGCAAUAUUACGCUAA | -2.15 ± 0.27 | -2.26 ± 0.26 |
| AUUCAGCAAUAUUACGGAAA | -1.03 ± 0.12 | -0.365 ± 0.12 |
| UAGUAGCAAUAUUACGUGCC | -2.98 ± 0.25 | -2.11 ± 0.27 |
| UACCAGCAAUAUUACGCGAG | -0.774 ± 0.049 | -0.168 ± 0.061 |
| UGGCAGCAAUAUUACGUAGA | -0.926 ± 0.084 | -0.264 ± 0.094 |
| UACAAGCAAUAUUACGAACU | -1.48 ± 0.089 | -0.628 ± 0.1 |
| GACUAGCAAUAUUACGGCUG | -1.04 ± 0.079 | -0.193 ± 0.087 |
| UCACAGCAAUAUUACGCGUC | -3.18 ± 0.31 | -1.55 ± 0.16 |
| AUGGAGCAAUAUUACGGACU | -1.2 ± 0.18 | -0.626 ± 0.23 |
| CGCGAGCAAUAUUACGUGCU | -2.71 ± 0.14 | -2 ± 0.22 |
| AUUAAGCAAUAUUACGAGUC | -3.25 ± 0.15 | -3.29 ± 0.21 |
| UAAUAGCAAUAUUACGCGUG | -1.37 ± 0.1 | -0.125 ± 0.12 |

| Sequence | self-splicing fitness (ln) (30 °C) | self-splicing fitness (ln) (37 °C) |
| --- | --- | --- |
| CAGAAGCAAUAUUACGAUCC | -2.81 ± 0.16 | -1.93 ± 0.32 |
| UCUGAGCAAUAUUACGCUGA | -1.89 ± 0.17 | -0.151 ± 0.15 |
| AACUAGCAAUAUUACGGCCA | -0.0639 ± 0.1 | -0.69 ± 0.1 |
| GUCGAGCAAUAUUACGAAAA | – | -2.58 ± 0.41 |
| GCUAAGCAAUAUUACGCACU | -0.54 ± 0.071 | 0.421 ± 0.11 |
| GUUAAGCAAUAUUACGACCA | -0.467 ± 0.21 | -1.67 ± 0.17 |
| UACCAGCAAUAUUACGCCGA | -1.45 ± 0.16 | -0.513 ± 0.17 |
| CGUAAGCAAUAUUACGUGGA | -2.93 ± 0.2 | -2.44 ± 0.24 |
| UGAUAGCAAUAUUACGUACU | 0.125 ± 0.1 | -0.524 ± 0.11 |
| GCGUAGCAAUAUUACGAUAC | -1.95 ± 0.12 | -0.893 ± 0.12 |
| ACAAAGCAAUAUUACGGAAA | -2.26 ± 0.18 | -1.7 ± 0.21 |
| CCGUAGCAAUAUUACGGGCG | -2.81 ± 0.17 | -1.34 ± 0.14 |
| UAUAAGCAAUAUUACGUAAC | -3.16 ± 0.27 | 0.142 ± 0.22 |
| AGGUAGCAAUAUUACGCUAA | -1.66 ± 0.018 | -0.802 ± 0.035 |
| AGGUAGCAAUAUUACGGCAC | -0.781 ± 0.017 | -0.277 ± 0.035 |
| AGCAAGCAAUAUUACGAUAU | -2.16 ± 0.13 | -1.51 ± 0.11 |
| GUCGAGCAAUAUUACGUUAC | -3.38 ± 0.22 | -1.49 ± 0.27 |
| CAUCAGCAAUAUUACGGUUU | -2.29 ± 0.079 | -0.832 ± 0.094 |
